B1: 1x3e_C: minimal PG9 epitope-scaffold, SEQ ID NO: 68 in Table 2 (SEQ ID NO: 67 in b296), native scaffold PDB 1X3E (protein)
chain: GDTTITVVGNLTADPELRFTPSGAAVANFTVASTGSALFLRCNIWREAAENVAESLTRGSRVIVTGRLCVKHASFNITTDVKDRKQKVNATFYCVEVDEIGPSLR
modifications: Human immunodeficiency virus
B2: 1x3e_a: minimal PG9 epitope-scaffold, SEQ ID NO: 66, native scaffold PDB 1X3E (protein)
chain: B1 chain with C69K, A73C, C94E
modifications: Human immunodeficiency virus
B3: 1YN3_A: minimal PG9 epitope-scaffold, SEQ ID NO: 28, native scaffold PDB 1YN3 (protein)
chain: GSHVSFNITTDVKDRKQKVNATFYKNQNISYKDLEGKVKSVLESNRGITDVDLRLSKQAKYTVNFKNGTKKVIDLKSGIYTANLINSSDIKSININID
modifications: Human immunodeficiency virus
B4: 1t0a_a: minimal PG9 epitope-scaffold, SEQ ID NO: 77, native scaffold PDB 1T0A (protein)
chain: KIRIGHGFDVHKFGKHASFNITTDVKDRKQKVNATFGLVAHSDGDVVLHAISDAILGAMALGDIGKHFPDTDAAYKGADSRVLLRHCYALAKAKGFELGNLDVTIIAQAPKMAPHIEDMRQVLAADLNADVADINVKATTTEKLGFTGRKEGIAVEAVVLLSRQG
modifications: Human immunodeficiency virus
B5: 2zjr_a: minimal PG9 epitope-scaffold, SEQ ID NO: 17, native scaffold PDB 2ZJR (protein)
chain: SHYDILQAPVISEKAYSAMERGVYSFWVSPGATKTEIKDAIQQAFGVRVIGISVKHCSFNITTDVKDRKQKVNATFAIVRLAEGQSIEALAGQ
modifications: Human immunodeficiency virus
B6: 2zjr_b: minimal PG9 epitope-scaffold, SEQ ID NO: 18, native scaffold PDB 2ZJR (protein)
chain: B5 chain with V54T, C57A
modifications: Human immunodeficiency virus
B7: 2f7s_B: minimal PG9 epitope-scaffold, SEQ ID NO: 52, native scaffold PDB 2F7S (protein)
chain: DYDYLIKLLALGDSGVGKTTFLYRYTDNKFNPKFITTVGIDVKHASFNITTDVKDRKQKVNATFYDTAGQERFRSLTTAFFRDAMGFLLMFDLTSQQSFLNVRNWMSQLQANAYCENPDIVLIGNKADLPDQREVNERQARELADKYGIPYFETSAATGQNVEKAVETLLDLIMKRMEQCVE
modifications: Human immunodeficiency virus
B8: 2f7s_C: minimal PG9 epitope-scaffold, SEQ ID NO: 53, native scaffold PDB 2F7S (protein)
chain: B7 chain with D41C, D66C
modifications: Human immunodeficiency virus
B9: 3pyr_a: minimal PG9 epitope-scaffold, SEQ ID NO: 76, native scaffold PDB 3PYR (protein)
chain: MKTAYDVILAPVLSEKAYAGFAEGKYTFWVHPKATKTEIKNAVETAFKVKVVKVNTKHASFNITTDVKDRKQKVNATFAIVQVAPGQKIEALEGLIG
modifications: Human immunodeficiency virus
B10: 1vh8_c: minimal PG9 epitope-scaffold, SEQ ID NO: 65, native scaffold PDB 1VH8 (protein)
chain: SLIRIGHGFDVHAFGKHASFNITTDVKDRKQKVNATFGFIAHSDGDVALHALTDAILGAAALGDIGKLFPKNADSRGLLREAFRQVQEKGYKIGNVDITIIAQAPKMRPHIDAMRAKIAEDLQCDIEQVNVKATTTEKLGFTGRQEGIACEAVALLIRQ
modifications: Human immunodeficiency virus
B11: 1vh8_a: minimal PG9 epitope-scaffold, SEQ ID NO: 63, native scaffold PDB 1VH8 (protein)
chain: B10 chain with G15V, A18C, G38Y
modifications: Human immunodeficiency virus
B12: 1vh8 b: minimal PG9 epitope-scaffold, SEQ ID NO: 64, native scaffold PDB 1VH8 (protein)
chain: B10 chain with G15V, G38Y
modifications: Human immunodeficiency virus
B13: 2vxs_a: minimal PG9 epitope-scaffold, SEQ ID NO: 37, native scaffold PDB 2VXS (protein)
chain: TNPKRSSDYYNRSTSPWNLHRNEDPERYPSVIWEAKCRHLGCINADGNVDYHMNSISQNITTDVKDRKQKVNATCTCVTPIVH
modifications: Human immunodeficiency virus
B14: 2ZJR: 2ZJR epitope-scaffold of FIG. 58; legend leaves open whether 2ZJR_A or 2ZJR_B (protein)
chain: B5 chain
B15: PG9e-encapsulin (ZM109): encapsulin particle displaying the minimal PG9 epitope (gp120 154-177) of HIV-1 strain ZM109 (protein)
chain: MEFLKRSFAPLTEKQWQEIDNRAREIFKTQLYGRKFVDVEGPYGWEYAAHPLGEVEVVKHSSFNITTDVKDRKQKVNATFGLRKSLPLIELRATFTLDLWELDNLERGKPNVDLSSLEETVRKVAEFEDEVIFRGCEKSGVKGLLSFEERKIECGSTPKDLLEAIVRALSIFSKDGIEGPYTLVINTDRWINFLKEEAGHYPLEKRVEECLRGGKIITTPRIEDALVVSERGGDFKLILGQDLSIGYEDREKDAVRLFITETFTFQVVNPEALILLK
B16: PG9e-ferritin (ZM109): ferritin particle displaying the minimal PG9 epitope (gp120 154-177) of HIV-1 strain ZM109 (protein)
chain: MLSKDIIKLLNEQVNKEMQSSNLYMSMSSWCYTHSLDGAGLFLFDHAAEEYEHAKKLIIFLNENNVPVQLTSISAPEHKFEGLTQIFQKAYEHEQHISESINNIVDHAIGVKHSSFNITTDVKDRKQKVNATFYGKDHATFNFLQWYVAEQHEEEVLFKDILDKIELIGNENHGLYLADQYVKGIAKSRKS

Substitutions are numbered along the chain they refer to.

The first assay deals with monoclonal antibody PG9. As to the kind of experiment: ELISA of minimal epitope scaffolds with PG9. Type of assay: binding, human. The conditions noted are these: GnTI- cell expression. As for the experimental part:
(§1) The supernatants of all wells expressing minimal epitope scaffolds were tested for binding to PG9, CH01, CH03, PGT145 and PGT142 antibodies through ELISA assays in which the supernatant was diluted 5-fold in PBS and incubated on nickel coated plates. […] Some, such as 2ZJR_A, were run over a protein A column coated in PG9 which was subsequently cleaved from the column resulting in an eluted complex consisting of the scaffolds and the PG9 Fab.
A general note: ELISA stands for enzyme-linked immunosorbent assay.
For B1, the “binding to monoclonal antibody PG9” value is recorded as “bind”.

Turning to B2, the “binding to monoclonal antibody PG9” value is recorded as “bind”.

As for B3, the “binding to monoclonal antibody PG9” value was “bind”.

Turning to B4, the “binding to monoclonal antibody PG9” value was “bind”.

Take B5: the “binding to monoclonal antibody PG9” value is listed as “bind”.

Consider B6, for which the “binding to monoclonal antibody PG9” value is reported as “bind”.

With B7, the “binding to monoclonal antibody PG9” value is on record as “bind”.

On to B8, for which the “binding to monoclonal antibody PG9” value is listed as “bind”.

On to B9, for which the “binding to monoclonal antibody PG9” value is “bind”.

Turning to B10, the “binding to monoclonal antibody PG9” value is on record as “bind”.

As for B11, the “binding to monoclonal antibody PG9” value is “bind”.

With B12, the “binding to monoclonal antibody PG9” value was “bind”.

For the molecule B13, the “binding to monoclonal antibody PG9” value was “bind”.

The test system of a further assay is PG9 Fab. As to the kind of experiment: Gel filtration of epitope scaffold complex with PG9 Fab.
Conditions: not given
Type of assay: binding, human. The protocol: as §1
On the technique in general: SEC sorts molecules by how far they enter the pores of the column.
Take B5: the “complex with PG9 Fab through gel filtration” value is “intact complex”.

For B14, the “complex with PG9 Fab through gel filtration” value was “forms a stable complex”.

For a further assay, the system named is PG9. As to the kind of experiment: Immunoprecipitation of protein nanoparticles with PG9. Type of assay: binding, human. Conditions: Protein A agarose, SDS-PAGE, Coomassie stain. As for the experimental part: (§2) The minimal PG9 epitope (residues 154-177) or variations thereof, were inserted or fused to ferritin, encapsulin or SOR genes using the schemes shown in FIG. 59. The expression plasmids were transfected into HEK293 cells grown in the presence of swainsonine, or transfected into HEK293 GnTI^−/− cells. Particles were purified from the media using lectin affinity chromatography (snow drop lectin from Galanthus nivalis) followed by size-exclusion chromatography. Binding experiments were performed by incubating purified particles or particle-containing expression supernatant with the listed antibodies (PG9, PG16, VRC01) and Protein A agarose resin. After this incubation, the resin was pelleted and washed several times, and then incubated with SDS-containing buffer at 100 C. The solubilized and denatured proteins were separated by SDS-PAGE and visualized with Coomassie stain.
In the case of B15, the “immunoprecipitation by PG9” value is reported as “immunoprecipitate”.

Take B16: the “immunoprecipitation by PG9” value is recorded as “immunoprecipitate”.

The subject of a further assay is PG16. As to the kind of experiment: Immunoprecipitation of protein nanoparticles with PG16. Conditions: Protein A agarose, SDS-PAGE, Coomassie stain. In kind it is binding, human. The protocol: as §2
For B16, the “immunoprecipitation by PG16” value is “interacts”.
